# Assay: yeast display, Sf9 membrane polyspecificity reagent, FACS + sequencing; frameworks hold sequencing errors
# Summary of the method: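 Sorting gates, low and high (top ~1%), were placed on anti-HA fluorescence to track expression and on streptavidin fluorescence to track reagent binding. A clone's polyreactivity label is taken from the gate it came out of. The reagent was 10% biotinylated, detergent-solubilized Sf9 membrane, applied for 1 hour at 4 °C to galactose-induced yeast display cells.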
row,Sequence,polyreactivity (PSR sort gate)
1,QVQLVESGGGLVQAGGTLRLSCAASGRTFAYNAMGWYRQAPGKERELVAAITWSGDSTYYADSVKGRFTISRDNAKKTVYLQRNSLKPEDTAVYYCAADYFGGPSYEFDYWGQGTQVTVSS,low polyreactivity
2,QVQLVESGGGLVQAGGTLRLSCAASGRTFNTYAMGWYRQAPGKERELVAAISSGGRTYYADSVKGRFTISRDNAMLTVYLQMNSLKPEDTAVYYCAAKRFQYRTLYEFWGLGTQVTVSS,high polyreactivity
3,QVQLVESGGGLVQAGGTLRLSCAASGRTFYFYAMGWYRQAPGKERELVAAITSRVGRTYYADSVKGRFTISRDNAKNTVYLQMNSLKPEDTAVYYCAAEGVYRMGYWGQGTQVTVSS,high polyreactivity
4,QVQLVESGGGLVQAGGTLRLSCAASGRTIKQNAMGWYRQAPGKERELVATIRNGGNTNYADSVKGRFTISRDNAKNNVYLQMNSLKPEDTAVYYCAAARSPYKYSYWGQGTQVTVSS,high polyreactivity
5,QVQLVESGGGLVQAGGTLRLSCAASGRTYYGYAMGWYRQATGKERQLVAAIRSTTGSTYYADSVKGRFTISRDNAKITVYLQMNSLKPEDTAVYYCASAYPFYADMDYWGQGTQVTVSS,low polyreactivity
6,QVQLVESGGGLVQAGGTLRLSCAASGSIFPRYGMGWYRHAPGKERELVAAISGSGGSTYYADSVKGRFTISRDNAKNTVYLQMNSLKPEDTAVYYCNKLRRRVNRDIDDYWGQRTQVTVSS,high polyreactivity
7,QVQLVESGGGLVQAGGTLRLSCAASGSIFTYNAMGWYRQAPGKERELVAAITRSGGRTYYADSVKGRFTISRDNAKNTVYLQMNSLKPEDNAVYYCNTLRVGWGQGTQVTVSS,high polyreactivity
8,QVQLVESGGGLVQAGGTLRLSCAASGSIFWSYAMGWYRQAPGKEREFVASITGSGGTTTYADSVKGRFTISRDNAKNTVYLQMISLKPEDTAVYYCNARLHGWYHVYYIYDYWGQGTQVTVSS,low polyreactivity
9,QVQLVESGGGLVQAGGTLRLSCAASGSTFAANAMGCSRQAPGKERELVAGISESGDRTYADSVKGRFTISRDNAKNTVYLQMNSQKPEETAVYYCNVGANVYLLYFPSRGGVYDYGYWGHGTQVTVSS,low polyreactivity
10,QVQLVESGGGLVQAGGTLRLSCAASGSTFLTNAMGWNRPAPGKERELVAAIRTSGGSTYYADSVKGRFTISRDNAKNTFYVLMNSLKPEDTAVYYCAASYLRRRFSEYYYWGQGTQVTVSS,high polyreactivity
11,QVQLVESGGGLVQAGGTLRLSCAASGSTFNEYAMGWYRQAPGKERELVAAIDERGGNTYYADSVKGRFTISRDNAKNTVYLQMNSLKPEDTAVYYCAADAYPYYQSYYPFEYWGQGTQVTVSS,low polyreactivity
12,QVQLVESGGGLVQAGGTLRLSCAASGSTFRRYAMGWYRHAPVKERELVAAISGRGGSTSYADSVKGRFTISRDNAKNTVYLQMNSLKPEDTAVYYCAADDKYFYPGNGYWGQGTQVTVSS,high polyreactivity
13,QVQLVESGGGLVQAGGTLRLSCAASGSTFSVNAMGWYRQAPGKERELVASITTSGGSTNYADSVKGRFTISRDNAKNTVYLQMNSLKPEDTAVYYCNDDTPGSSPSDYNYWGQGTQVTVSS,low polyreactivity
14,QVQLVESGGGLVQAGGTLRLSCADSGLTFAKYAMGWYRQAPGKERQLVAAISRSGGSTYYADSVKGRFTISRDNAKNTVYLQINSLKPEDTARFYCPKSSGTLWITKYDYWGQGTQVTVSS,low polyreactivity
15,QVQLVESGGGLVQAGGTLRLSCAPSGRIFKTYAMGWYRQAPGKERELVAAITNNGGSTYYADSVKGRFTISRDNAKNTVYLLMNSLKPEDTAVYYCAVYVKYHYPVVTTGYDYWGQGTQVTVSS,high polyreactivity
16,QVQLVESGGGLVQAGGTLRLSCDASGRTFGYNAMGWYRQAPGKAREFDAAITWSGGSTYYADSVKGRFTISRDNAKNTVYLQMNSLKPEDTAVYYCAADLGRPLHGVAYGYWGQGTQVTVSS,low polyreactivity
17,QVQLVESGGGLVQAGGTLRLSSAASGFTFGNYAMGWYRQAPGKERELVAAISGRSGRTYYADSVKGRFTISRDNAKNTVYLQMISLKPEVTAVYYCAKKVFGWEYYYWGQGTQVTVSS,high polyreactivity
18,QVQLVESGGGLVQAGGTLRLTCAASGRIFNSNDMRWYRQAPGKERELVASISPNTGTTYYADSVKGRFTISRDNAKNTVYLQMNSLKPEDTAVYYCAARGVYYQDGLVTGEAEYGYWGQGTQVTVSS,low polyreactivity
19,QVQLVESGGGLVQAGRSHRLSCAASGRTFKPYAMGWYRPAPGKERELVARISGSGGSTYYADSVKGRFTISRDYAKNTVYLQMNSLNPEDIAVYYCATTPYYWFDYWGQGRQVTVSS,low polyreactivity
20,QVQLVESGGGLVQAGRSHRLSCAASGSTYANTMGWYIQAPGKERELDAAITYTGGSTYYADSVKGRFTISRDNAKNTVYLQMNSLKPEDTAVYYCAADAQAPPGGFKEYDYWGQGTQVTVSS,low polyreactivity
21,QVQLVESGGGLVQAGRSIRLSCAASGRTFLGNSLGWYRQAPGKEMELVAAITRNGGGTYYPDSVKGRFTISRDNAKNTVYLQMNSLKPEDTAVYYCAALTSLFWRGGGLDYWGQGTQVTVSS,high polyreactivity

row,Sequence,polyreactivity (PSR sort gate)
1,QVQLVESGGGLVQAGRSLLLSCAASGRIFDGYAKGRYRQAPGKERELVAAINSNDGTTYYADSVKGRFTISRDKAKHTVYVQMNSLKPEDTAVYYCAKVSYNAWSYGPQMDYWGQGTQVTVSS,low polyreactivity
2,QVQLVESGGGLVQAGRSLPLSCAASGRTFRPNAMGWYRQAPGKERELVAVSSWRGGRTYYADSVKGRFTISRDNAKNTVYLQMNSLKPEDTAVYYCAAGPTSRRWYDYWGQGTQVTVSS,high polyreactivity
3,QVQLVESGGGLVQAGRSLRLICAASGSTFKRYAMGWYRQAPGKERELVAAITWTGGRTYYADSVKGRFTISRDNANYTVYLQMNSLKPEDTAVYYCAADDPHTAYGYWGQGTQVTVSS,high polyreactivity
4,QVQLVESGGGLVQAGRSLRLSCAASGFIFWRYAMGWYRQAPGKERELVAAISSGRNTKYADSVKGRFTISRDNAKTTVYLQMNSLKPEDTAVYYCAVLGKYLWSATNRFPGSYDSWGHGTQVTVSS,high polyreactivity
5,QVQLVESGGGLVQAGRSLRLSCAASGFTFIRYDMGWYRQALGKETELVATITRRGGSTYYADSVKGRFTISRDNAKNTVYLQMNSLKPEDTAVYYCNRDYVTYGKYYYWGQGTQVTVSS,high polyreactivity
6,QVQLVESGGGLVQAGRSLRLSCAASGFTFLVYAMGWYRQAPGTERELVAAMSNGGSTNYADSVKGRFTITRDTAKNTVYLHMNSLKPEDTAVYYCAADDPRDHWYTAMDYWGQGTQVTVSS,low polyreactivity
7,QVQLVESGGGLVQAGRSLRLSCAASGNIFIRYAMGWYRQAPGKEREVVAAISQSGGGTSYADSVKGRFTISRDNAKNTVYLQMNSLKPEDTAVYYCNARYWRYPWRFGAWVGHDYWGQGTQVTVSS,low polyreactivity
8,QVQLVESGGGLVQAGRSLRLSCAASGRIFSRYTMGWYRQAPGKERELVAANSYRGGSTYYADSVKGRFTISRDNAKNTVYLQMNSLKPEDTEVYYCAARVQAIYRYDYCGQGTQVTVSS,high polyreactivity
9,QVQLVESGGGLVQAGRSLRLSCAASGRIFYGYAMGWYRQAPGRERELVAANTYIGGTYYADSVKGRFTISRDNAKNTVYLQMKSLKPEDTAVYYCATEPFYTYGYYTYPYWYDYWGQATQVTVSS,low polyreactivity
10,QVQLVESGGGLVQAGRSLRLSCAASGSIFGFYAMGCYRQAPGKERELVAASTVSDGTTYYADSVKGRFTISRDNAKNSFFFLMNSVKPEDTVVYYCAGDVFRQHEYYYWGQGTQVTVSS,low polyreactivity
11,QVQLVESGGGLVQAGRSLRLSCAASGSILGFYAMGWYRHAPGKERELVAAIRWRAGSTYYADSVKGRFTISRDNAKNTVNLQMNSLKPEDTAVYYCAAPTKYRSRRYYWGQGTQVTVSS,high polyreactivity
12,QVQLVESGGGLVQAGRSLRLSCPASGRTVVYNSLGWYRQAPGKETEFVAAITRSRDSTYYADSVKGRFTISRDNASNPVYLEMNSLKPEDSAAYYCNAVSKRYWLMDYWGQGTQVTVSS,high polyreactivity
13,QVQLVESGGGLVQAGRSNRISCAASGGIFSYYAMGWYRQAPGKEREFVAAIDWGGGSTYYADSLKGRFTLSRDNAKNTVYLQMNSLKPEDTAVYYCAAEIYPIGWDDYDYWGQGTQVTVSS,low polyreactivity
14,QVQLVESGGGLVQAGRTLRLSCAASGRLFSHNAMGWYRQAPGKEREWVAAISGSGGSTYYADSVKGRFTISRDNAKNTVYLQMNSLKPEDTAVYYCAARFAVLVTRRFYYWGQGTQVTVSS,high polyreactivity
15,QVQLVESGGGLVQAGRTLRLSCAATGFIIVHNAMGWYRQPPGKERELVAAITSRGRTYYADSVKGRFTISRDHAKNTVYLQMNSLKPEDTAVYYCNPYWRGDYRYDSWGQGTQVTVSS,high polyreactivity
16,QVQLVESGGGLVQAGVILRLSCAASGRIITTYAMGRYRQAPGKERELVAAISARGGRTYYADSVKGRFTISRDNAKNTVYLQMNSLKPEDTAVYYCAAVSIQAYTRRQYDWGQGTQVTVSS,high polyreactivity
17,QVQLVESGGGLVQAGVRLRLSCAASGFIFVVNAMGWYRPATRKEREFVAVISSSTGSTYYADSVKGRFTISRDNAKYTVYLPMNSLKPEDTAVYYCAAASRRRRPLKRMDYWGQGTQVTVSS,low polyreactivity
18,QVQLVESGGGLVQAGVRLRLSCPASGTTFYYNAMGRYRQAPGKERELVAAITSGGRTKYADSVKGRFTISRDNAKNTVYLQKNRLKPEDTAVYYCNTYNRRSGTLPKAYDYWGQGTQVTVSS,high polyreactivity
19,QVQLVESGGGLVQAGVSLRISCAASGFTFSRNAMGWYRQAPGKESELVAAITWSGGRSYYADSVKGRFTISGDNAKNPVYLQMNSLKPEDTAVYYCAARKYPLRSAYDYWGPGTQVTVSS,low polyreactivity
20,QVQLVESGGGLVQAGVSLRISSAASGLIFGSNAMGWYRQAPGIERELVAAISWRGGSTYYADSVKGRFTISRDNAKKTVSCQMNSLKPEDTAVYYCAKYPYYYYWFNYCGQGTQVTVSS,high polyreactivity
